Experimental data taken from patent US20260116991A1 (HAINAN SIMCERE ZAIMING PHARMACEUTICAL, published 2026).

Experiments:
[1] = molecular target: T1, murine GPC3-his protein (murine, UniProt Q8CFZ4 25-558, limits assumed); assay: ELISA, murine GPC3-his coated; antibody 0.02 nM
T1 construct: Bought protein; also called mouse GPC3 protein; murine GPC3 protein; not shown: His tag

[2] = molecular target: T1, murine GPC3-his protein; assay: ELISA, murine GPC3-his coated; antibody 0.11 nM
Experimental: (§1) The specific method is described as follows: The antigen protein was diluted with PBS to a final concentration of 1 μg/mL, and the diluent was added to a 96-well ELISA plate at 50 μL/well. The plate was sealed with a plastic film and incubated at 4° C. overnight, washed twice with PBS the next day, and a blocking solution [PBS+2% (w/w) BSA] was added for blocking at room temperature for 2 h. […] After incubation at 37° C. for 2 h, the plate was washed 3 times with PBS. A horseradish peroxidase (HRP)-labeled secondary antibody (purchased from Merck, Cat. No. AP113P) was added for incubation at 37° C. for 1 h, and the plate was washed 5 times with PBS. A TMB substrate was added at 50 μL/well for incubation at room temperature for 10 min, then a stop solution (1.0M HCl) was added at 50 μL/well.

[3] = molecular target: T1, murine GPC3-his protein; assay: ELISA, murine GPC3-his coated; antibody 0.53 nM
Experimental: as §1

[4] = molecular target: T1, murine GPC3-his protein; assay: ELISA, murine GPC3-his coated; antibody 2.67 nM
Experimental: as §1

[5] = molecular target: T2, monkey GPC3-His protein (monkey); assay: ELISA, monkey GPC3-His coated; antibody 0.02 nM
T2 construct: Bought protein; also called monkey GPC3 protein
Experimental: as §1

[6] = molecular target: T2, monkey GPC3-His protein; assay: ELISA, monkey GPC3-His coated; antibody 0.11 nM
Experimental: as §1

[7] = molecular target: T2, monkey GPC3-His protein; assay: ELISA, monkey GPC3-His coated; antibody 0.53 nM
Experimental: as §1

[8] = molecular target: T2, monkey GPC3-His protein; assay: ELISA, monkey GPC3-His coated; antibody 2.67 nM
Experimental: as §1

[9] = molecular target: T1, murine GPC3-his protein; assay: ELISA, murine GPC3-his coated; antibody 0.004 nM
Experimental: as §1

[10] = molecular target: T1, murine GPC3-his protein; assay: ELISA, murine GPC3-his coated; antibody 13.33 nM
Experimental: as §1

[11] = molecular target: T1, murine GPC3-his protein; assay: ELISA, murine GPC3-his coated; antibody 66.66 nM
Experimental: as §1

[12] = molecular target: T2, monkey GPC3-His protein; assay: ELISA, monkey GPC3-His coated; antibody 0.004 nM
Experimental: as §1

[13] = molecular target: T2, monkey GPC3-His protein; assay: ELISA, monkey GPC3-His coated; antibody 13.33 nM
Experimental: as §1

[14] = molecular target: T2, monkey GPC3-His protein; assay: ELISA, monkey GPC3-His coated; antibody 66.66 nM
Experimental: as §1

[15] = molecular target: T1, murine GPC3-his protein; assay: ELISA, murine GPC3-his coated; antibody 0.0008 nM
Experimental: as §1

[16] = molecular target: T2, monkey GPC3-His protein; assay: ELISA, monkey GPC3-His coated; antibody 0.0008 nM
Experimental: as §1

T1 sequence (Q8CFZ4 25-558 limits assumed): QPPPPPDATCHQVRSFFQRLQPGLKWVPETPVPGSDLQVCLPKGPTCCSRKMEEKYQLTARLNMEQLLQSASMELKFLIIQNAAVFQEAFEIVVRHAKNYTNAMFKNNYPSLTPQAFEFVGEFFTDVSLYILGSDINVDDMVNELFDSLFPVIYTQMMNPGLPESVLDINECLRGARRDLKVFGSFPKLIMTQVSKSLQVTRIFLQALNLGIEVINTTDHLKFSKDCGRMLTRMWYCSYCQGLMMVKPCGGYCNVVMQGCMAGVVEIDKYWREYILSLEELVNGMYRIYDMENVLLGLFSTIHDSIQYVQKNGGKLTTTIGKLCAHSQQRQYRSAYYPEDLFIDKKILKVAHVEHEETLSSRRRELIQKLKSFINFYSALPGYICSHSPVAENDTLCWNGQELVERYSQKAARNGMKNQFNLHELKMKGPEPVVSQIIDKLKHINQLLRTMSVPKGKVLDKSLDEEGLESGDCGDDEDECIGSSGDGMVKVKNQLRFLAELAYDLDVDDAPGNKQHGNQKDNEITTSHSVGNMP

Binder	OD450 nm [1]	OD450 nm [2]	OD450 nm [3]	OD450 nm [4]	OD450 nm [5]	OD450 nm [6]	OD450 nm [7]	OD450 nm [8]	OD450 nm [9]	OD450 nm [10]	OD450 nm [11]	OD450 nm [12]	OD450 nm [13]	OD450 nm [14]	OD450 nm [15]	OD450 nm [16]
hAb001H1L1a (antibody, human IgG1, V domains shown, Humanized F2.169.2, H1+L1a) VH: EVQLVESGGGLVQPGGSLRLSCAASGFSFNTNAMNWVRQAPGKGLEWVGRIRSKSNNYATYYADSVKDRFTISRDDSKNSLYLQMNSLKTEDTAVYYCVRDGYYVLFAYWGQGTLVTVSS VL: DIVMTQTPLSLPVTPGEPASISCRFSQSIVNSDGNTYLEWFLQKPGQSPQLLIYKVSNRFSGVPDRFSGSGSGTDFTLKISRVEAEDVGVYYCFQGSHVPFTFGQGTKLEIK	0.657	1.66	2.37	2.49	0.39	1.23	2.08	2.27	0.356	2.57	2.58	0.211	2.37	2.16	0.117	0.068
hAb001H1aL1 (antibody, human IgG1, V domains shown, Humanized F2.169.2, H1a+L1) VH: EVQLVESGGGLVQPGGSLRLSCAASGFSFNTNAMNWVRQAPGKGLEWVGRIRSKSNNYATYYADSVKGRFTISRDDSKNSLYLQMNSLKTEDTAVYYCVRDGYYVLFAYWGQGTLVTVSS VL: DIVMTQTPLSLPVTPGEPASISCRFSQSIVNSNGNTYLEWFLQKPGQSPQLLIYKVSNRFSGVPDRFSGSGSGTDFTLKISRVEAEDVGVYYCFQGSHVPFTFGQGTKLEIK	1.15	1.95	2.45	2.52	1.03	2	2.36	2.57	0.44	2.63	2.68	0.379	2.52	2.52	0.255	0.201
hAb001H1aL1a (antibody, human IgG1, V domains shown, Humanized F2.169.2, H1a+L1a) VH: EVQLVESGGGLVQPGGSLRLSCAASGFSFNTNAMNWVRQAPGKGLEWVGRIRSKSNNYATYYADSVKGRFTISRDDSKNSLYLQMNSLKTEDTAVYYCVRDGYYVLFAYWGQGTLVTVSS VL: DIVMTQTPLSLPVTPGEPASISCRFSQSIVNSDGNTYLEWFLQKPGQSPQLLIYKVSNRFSGVPDRFSGSGSGTDFTLKISRVEAEDVGVYYCFQGSHVPFTFGQGTKLEIK	0.67	1.49	2.29	2.49	0.437	1.44	2.19	2.44	0.206	2.44	2.45	0.132	2.42	2.34	0.092	0.073
hAb001H1aL1b (antibody, human IgG1, V domains shown, Humanized F2.169.2, H1a+L1b) VH: EVQLVESGGGLVQPGGSLRLSCAASGFSFNTNAMNWVRQAPGKGLEWVGRIRSKSNNYATYYADSVKGRFTISRDDSKNSLYLQMNSLKTEDTAVYYCVRDGYYVLFAYWGQGTLVTVSS VL: DIVMTQTPLSLPVTPGEPASISCRFSQSIVNSNANTYLEWFLQKPGQSPQLLIYKVSNRFSGVPDRFSGSGSGTDFTLKISRVEAEDVGVYYCFQGSHVPFTFGQGTKLEIK	1.15	2.05	2.52	2.68	1.02	1.99	2.39	2.39	0.346	2.73	2.76	0.347	2.54	2.59	0.185	0.144
hAb001H2L1 (antibody, human IgG1, V domains shown, Humanized F2.169.2, H2+L1) VH: EVQLVESGGGLVQPGGSLRLSCAASGFSFNTNAMNWVRQAPGKGLEWVGRIRSKSNNYATYYADSVKDRFTISRDDSKSSLYLQMNSLKTEDTAVYYCVRDGYYVLFAYWGQGTLVTVSS VL: DIVMTQTPLSLPVTPGEPASISCRFSQSIVNSNGNTYLEWFLQKPGQSPQLLIYKVSNRFSGVPDRFSGSGSGTDFTLKISRVEAEDVGVYYCFQGSHVPFTFGQGTKLEIK	1.27	2.1	2.48	2.59	1.05	2.11	2.47	2.59	0.524	2.62	2.62	0.4	2.64	2.68	0.277	0.304
